Source: publication PMC4691284

Biological target: Fer F-BAR domain (human) (UniProt P16591)
Test: AUC

Chain of Fer F-BAR domain (P16591 1-264): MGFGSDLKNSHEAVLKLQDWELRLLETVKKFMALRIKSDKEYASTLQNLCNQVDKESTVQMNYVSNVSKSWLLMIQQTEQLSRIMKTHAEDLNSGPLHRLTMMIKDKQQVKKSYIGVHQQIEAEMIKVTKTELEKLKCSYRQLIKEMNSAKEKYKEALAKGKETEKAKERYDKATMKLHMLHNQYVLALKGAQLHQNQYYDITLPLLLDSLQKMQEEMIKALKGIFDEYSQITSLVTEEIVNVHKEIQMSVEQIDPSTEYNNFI

- stoichiometry N: 2 dimers
Substance: Fer F-BAR domain (from UniProt P16591 1-259) (domain or fragment)
